The results in this text go back to publication PMC2989778.

This assay concerns the target hCD40–BAFF-R_(His159-Tyr) chimera (human | mouse) (UniProt P25942). In words: co-IP.

B1: TRAF2 (mouse, endogenous) (natural protein)
chain: MAAASVTSPGSLELLQPGFSKTLLGTRLEAKYLCSACKNILRRPFQAQCGHRYCSFCLTSILSSGPQNCAACVYEGLYEEGISILESSSAFPDNAARREVESLPAVCPNDGCTWKGTLKEYESCHEGLCPFLLTECPACKGLVRLSEKEHHTEQECPKRSLSCQHCRAPCSHVDLEVHYEVCPKFPLTCDGCGKKKIPRETFQDHVRACSKCRVLCRFHTVGCSEMVETENLQDHELQRLREHLALLLSSFLEAQASPGTLNQVGPELLQRCQILEQKIATFENIVCVLNREVERVAVTAEACSRQHRLDQDKIEALSNKVQQLERSIGLKDLAMADLEQKVSELEVSTYDGVFIWKISDFTRKRQEAVAGRTPAIFSPAFYTSRYGYKMCLRVYLNGDGTGRGTHLSLFFVVMKGPNDALLQWPFNQKVTLMLLDHNNREHVIDAFRPDVTSSSFQRPVSDMNIASGCPLFCPVSKMEAKNSYVRDDAIFIKAIVDLTGL
B1 came in with a fold increase in recruitment against hCD40–BAFF-RWT (60 min) of 5 fold.

B2: TRAF3 (mouse, endogenous) (natural protein)
chain: MESSKKMDAAGTLQPNPPLKLQPDRGAGSVLVPEQGGYKEKFVKTVEDKYKCEKCRLVLCNPKQTECGHRFCESCMAALLSSSSPKCTACQESIIKDKVFKDNCCKREILALQVYCRNEGRGCAEQLTLGHLLVHLKNECQFEELPCLRADCKEKVLRKDLRDHVEKACKYREATCSHCKSQVPMIKLQKHEDTDCPCVVVSCPHKCSVQTLLRSELSAHLSECVNAPSTCSFKRYGCVFQGTNQQIKAHEASSAVQHVNLLKEWSNSLEKKVSLLQNESVEKNKSIQSLHNQICSFEIEIERQKEMLRNNESKILHLQRVIDSQAEKLKELDKEIRPFRQNWEEADSMKSSVESLQNRVTELESVDKSAGQAARNTGLLESQLSRHDQMLSVHDIRLADMDLRFQVLETASYNGVLIWKIRDYKRRKQEAVMGKTLSLYSQPFYTGYFGYKMCARVYLNGDGMGKGTHLSLFFVIMRGEYDALLPWPFKQKVTLMLMDQGSSRRHLGDAFKPDPNSSSFKKPTGEMNIASGCPVFVAQTVLENGTYIKDDTIFIKVIVDTSDLPDP
Molecule B2 came in with a fold increase in recruitment against hCD40–BAFF-RWT (60 min) of 4 fold.
